The target of the experiment is GST-SpyCatcher fusion protein, immobilised on nanoparticles (Streptococcus pyogenes). The experiment in a line: dynamic light scattering; GST-SpyCatcher held on 40 nm citrate-capped gold nanoparticles; excess of the second protein, 3 h incubation; increase of Z-average diameter (Δd); 20 °C; 10 mM HEPES pH 7.3, 10 mM NaCl.

As for NEM-GST-SpyTag, the increase of particle diameter (Δd) turned out to be 3 nm.

The record behind these values is PMC5902510.
